The nature of this data set: soluble on expression in E. coli; label from the status in PepcDB or PDB records.
For “MSLSTPIQAEPPNLSLIRKEIKNYYDSGLYYHELERTIKLAQEYIHQQYLINKNNKHPQKLAIVLDIDETSLSNYDKMVKRDFTGSKEQIHKEILAANSPAIKPMLTLYKNALKQGIKVFFVTGRQESERDATRANLIKAGYTKWAGLYLRPNGYSSPSIIPFKSKAREMIAKKGYTIIASIGDQCSDIQGGYTKKGFKLPNPFYYLPEGHHHHHH”, the “soluble on expression in E. coli” value is on record as “soluble”.

As for “SLASPKRWTTNGLSTNQTLCYTLGEGQPSPFFYLRSARKMPQSVEQHIAAITDRIKDFVRFLDREEVAPVLAELREMFARELRATEGFASHERELHDRIRHESDYEQLRAIHDELNVLEMERFLAISSVSALHANCTEYRDILADRALALAEDEMEHDGRGRAPCPYALCSMGSDGREEQTLITDQDYLIVYGDGGGEAADEWFREFSELIVERLAQIGFKKCTGDIMPSNPTWRGSLSQWRRKLLAIVRYEYEDYAKNLMDLIVISDARHVAGDRDLAATLIATIRALEKDYFQVLWGMAKAATEMKLALGFLKRLWTEGSGEHKGEFNLKLLAWAPLVMNVRILAINQGVPATNTVKRIEHLAREGSFSPSFANGLVEAYEVLTRHRILLQIKVIKGIQKSSYYLNPYTLPAEEREAIRQALLRIEDLQRTIHTNFSIM”, the “soluble on expression in E. coli” value is recorded as “not soluble”.

Regarding “MIVRTLLDTDLYKFTTSYAYIKLFPYAMGTFSFNDRNETEYTEEFLEALKSEFNKLSRLRLTEEELEYMTRNCRFLPRVYWEWLSSFRFDPDKIDIHLDTTGRLHIEVSDFLYKVTLYEVPLLAIVSEIKNKFFGNVPDMSEILCKLSEKVELSNQHQLRFSEFGTRRRFSIDVQETVIKRLNDTAKYCTGTSNCYFAMKYGMKMMGTHPHEWFMFHGAQFGYKHANYMALENWVNVYDGDLGIALSDTYTSGIFLSNLSRKQAKLFDGVRCDSGNEFDFIDKLVARYKELGIDATTKTIVFSNALDFTKALEIQEYCKDKIRCSFGIGTNLTNDTGFAPSNIVMKLTQCKMNVNQEWRECIKLSDDEGKHTGSPEEVQACLYELRLAKLEHHHHHH”, the “soluble on expression in E. coli” value was “soluble”.

As to “MSDIPAGDYEKGKKVYKQRCLQCHVVDSTATKTGPTLHGVIGRTSGTVSGFDYSAANKNKGVVWTRETLFEYLLNPKKYIPGTKMVFAGLKKADERADLIKYIEVESAKSL”, the “soluble on expression in E. coli” value is “not soluble”.

Take “MSLDRLKQSLLDAPIIEKDGYHYFVHPISDGVPMLEPELLREIVIRIIRKAELDEVDKIVTPAAMGIHISTAVSLMTDIPIVVIRKREYGLPGEVALSQETGYSENEMYINDVHEGDRVLVLDDVLSTGGTLRAITDALEQTGADVADVLAVIKKAGPNELDDTDMDVRTLINVDEGHHHHHH”: the “soluble on expression in E. coli” value was “soluble”.

In the case of “MAQMTMIQAITDALRVEMKNDPNVLVFGEDVGVNGGVFRATEGLQAEFGEDRVMDTPLAESGIGGLAVGLALEGFRPVPEIQFFGFVYEVMDSISGQLARMRYRSGGRWTAPVTVRSPFGGGVHTPELHADSLEGLVAQQPGLKVVIPSTPYDAKGLLISAIRDNDPVIYLEHMKLYRSFRQDVPEGEYTIDLGKADIKREGTDVSVIAYGAMVHAALKAAEELEKEGISLEVVDLRTVQPLDIETIIASVEKTGRVVVVQEAQKQAGIAANVVAEINDRAILNLEAPVVRVAAADTVFPFSQAESVWLPNHKDIVEAVNKVMNF”, the “soluble on expression in E. coli” value is listed as “not soluble”.

Turning to “MGSDKIHHHHHHMVNKFTQFLVAFISLWMLHSCSGPQKEYVLKVKLNKLTQKDMYEYNLVKDVIFDAQELNVDSIKARSRESFLKGVDEYKNKHNAAAAVPLFKQSILTFPDAKTYYELGNALMELNTEASLDESIKAYRVAEELDIKPIASVYYKMACAQNMIGTLKKSDEDEYMVISYLRKSFINGFYDTLTLAKDTRINSILSTMSYKTLLRELESFKYKEDRNGLFELFKQAYPRPVEFEAALTDLTQYENKESISYDFAVFVPEMQNTEFGREVSNDFFYNALVQETPAYTALIYTSVSFWGDHDALMPSFTSLVTYDPMGIIIDRKLIACQCSAEKVKTVKIKDNKVYVEDFKRIWKQPIDKVSFDDNEVDKFESLAKLTYTINEDGTIQASEIPANYMDTVITKDQSKNTPQ”, the “soluble on expression in E. coli” value is reported as “not soluble”.

Take “GHMEVTLIVFHAGSLSVPFQEVEKEFSEYAERNLGIKVSFQDEASGSVMAVRKVTDLGRKADVIGVADYTLIPQLLIPNYTDFYVLFATNEIVIAFTDKSRYVEEMKSNPDKWYEILAREDVRFGFSDPNQDPCGYRSLMVIKLADLYYGKEIFKELIEENTNIYSNGTQIYAPKEITVNPGKIVIRPKETDLLGLVESGSIDYIFIYKSVAKQHNLSYITLPSEINLGDFSKEKFYGQISITLGSTGKTIKAKPIVYGVTVLKDAPNREVAIEFLRYLLSENGKRIFEKNHQDFL”: the “soluble on expression in E. coli” value was “soluble”.

For “MCMDSNVSWMIREKIERTIKNLEKNNIEAYNVKNSKQLIELIDKLIPEGETVAVGGSMTLFETGIIDHIRSKNYNFLDRYKEGLSKEDIKDVFRKSFFADSYIVSTNALTENGELYNVDGNGNRVAAMLFGPDKVIVIAGINKIVKDVDEAIKRNKFVSAPINAKRLNKATPTKVGYCMDCKSQDRICNEYTLIKRQGVKGRIKVIIVEEELGYLEHHHHHH”, the “soluble on expression in E. coli” value was “soluble”.

As to “MAHHHHHHMPPKRYPNRLLVLCASINDVTAWPFWKFLQMKKIRGVTDMALLAFNSDGGSFEARIDGDKYQLKNYAKVRGYQHDMFESFVHRWHDPGRSYFVYGGHGMGDYVELEQNRVIAAGARARRRLRHACLRSSAL”, the “soluble on expression in E. coli” value is given as “not soluble”.

Regarding “MSFQLHPDTTLDVVHLYVSNVKKSLEFYTEVLSMKVLKEEEAVVTFGNENDEPLLIIEEKKEAFPKQRGRTGLYHYAILLPSRQDLANVLRHLVEMVYPLHGGADHYFSEALYLADPDGNGIEIYHDRQKEVWRDENGELPFVSNPLAGEELLQQGSTWNGFPAGTVMGHIHFHVADLEEAKCFYVDGLGFEVTIPARNGALFVSAGGYHHHIGLNTWQGEGVPPQMPGSVGLKYFTIVLADEKQKEQVCESLKNIGKIATYKDGILQVEDPFGHCIHFKIKGEA”, the “soluble on expression in E. coli” value is “not soluble”.

Regarding “MRKEDKGTVIRQLAKYIGQYPHFYLTDIEALNAEKTSELRRNCNKNGVKLVMVKNTLLRAALAASDVDFSSLYSCLKGNTAVMFCEVANSPAKVIKQFTKDTKGEGKPWLKAAYVQESFYIGRENLDALVSIKSKNELIADVVALLQSPAKNVIASLQSAGQTIHGVLKTLEEK”, the “soluble on expression in E. coli” value is “not soluble”.

“MTRQSQDGDATSTPAERAAAARAAAAEAARIAAEAAAAAEEAEKEARDAEAAENRAPAGVAASSGAAADIAAGYSSEGAALELGTVVLDGVVDSAARVRIPLATVNRHGLVAGATGTGKTKTLQGIAEQLSAAGVPVVMADMKGDLSGLSQPGEAGDKITTRASETGDGEWRPAASPVEFLSLGTEGLGIPVRATITAFGPILLAKVLGLNETQESTLGLIFHWADVQGLALLDLLDLRSVIAHLTSDEGKADLKGIGGVSPATAGVILRALVNLEADGGDTFFGEPELETEDLLRVIDGKGVITLFELGAQAARPALFTTFLMWVLADLFQTLPEEGDLDKPKLVFIFDEAHLLFADASKAFLQQVEQTVKLIRSKGVGVFFCTQLPTDVPNGVLSQLGARIQHALRAFTPDDQKALTKTVRTYPTTENYDLEKALTSLGIGEAIVTVLSERGAPTPVAWTRIRPPRSLMDTIGTDAITAAASSSPLSAKYGQTVDRESAYEKLTAKVAGAPAAEPGLDLPPLPDLPTPPPAQPEGPNMAEQILGNSAVKSFLRSAASAAGREISRSIFGTGKRRRR”: the “soluble on expression in E. coli” value was “not soluble”.

For “MGGASSPRIPSRRSAPYFTSLAFFGSSYIKVKNNRNKMLNPTDAASVALSFSVPFQMSGENPLSKLVEHCNKFVPGADIKMKAEPAKPESLLLPTDMNAYSPYLATPNWWVDQTGWPQLYPTVTTASSVDVYQNYLASSQLGGLLSSSVSAVASQLPAGINAQSALNITSQQRTIAKSFQHTKPMASSSSIPSVLTASNSSANSLVSSGSESVSARGTSGSGGTGKYPSSRTANKCECPNCHEIEKFGPNAIAARKRGVHNCHIAGCGKVYNKSSHLKAHLRWHSGERQMKKRSGDSS”, the “soluble on expression in E. coli” value was “not soluble”.

In the case of “MGSDKIHHHHHHMAHEMIGTQIVTERLVALLESGTEKVLLIDSRPFVEYNTSHILEAININCSKLMKRRLQQDKVLITELIQHSAKHKVDIDCSQKVVVYDQSSQDVASLSSDCFLTVLLGKLEKSFNSVHLLAGGFAEFSRCFPGLCEGKSTLVPTCISQPCLPVANIGPTRILPNLYLGCQRDVLNKELMQQNGIGYVLNASNTCPKPDFIPESHFLRVPVNDSFCEKILPWLDKSVDFIEKAKASNGCVLVHCLAGISRSATIAIAYIMKRMDMSLDEAYRFVKEKRPTISPNFNFLGQLLDYEKKIKNQTGASGPKSKLKLLHLEKPNEPVPAVSEGGQKSETPLSPPCADSATSEAAGQRPVHPASVPSVPSVQPSLLEDSPLVQALSGLHLSADRLEDSNKLKRSFSLDIKSVSYSASMAASLHGFSSSEDALEYYKPSTTLDGTNKLCQFSPVQELSEQTPETSPDKEEASIPKKLQTARPSDSQSKRLHSVRTSSSGTAQRSLLSPLLRSGSVEDNYHTSFLFGLSTSQQHLTKSAGLGLKGWHSDILAPQTSTPSLTSSWYFATESSHFYSASAIYGGSASYSAYSCSQLPTCGDQVYSVRRRQKPSDRADSRRSWHEESPFEKQFKRRSCQMEFGESIMSENRSREELGKVGSQSSFSGSMEIIEVS”, the “soluble on expression in E. coli” value is reported as “not soluble”.

With “MGDNWRYEVKYDGFRTILFWTKETIRLESRNERLLTDQFPEIHDFCQRISNKVEAWLPITIDGELVHLVSPYRAHFAPIQTRSFMRKHETIAASSIKTPATLLAFDILELKGKTLVDLPYDERKKQLKALLKAIDVPLEHHHHHH”, the “soluble on expression in E. coli” value is reported as “not soluble”.

On to “MGQLFSSPQSEHQDLASSFTEYFKKFKTGNKIISQDIITLVELSLAKGNIQEANSAIRNALKEIDSTPLNVAVTGESGSGKSSFINTLRGIGHEEKGAAKTGVVEETMERHPYKHPNMPNVVFWDLPGIGTQTFPPKTYLEKMKFYEYDFFIIISATRFKKNDIDLAKAISMMKKEFYFVRTKVDSDLNNEEDFKPQNFDREKVLQNIRLNCVNTFKENGIAEPQIFLVSNKNVCHYDFPVLIDRLISDLPLYKRQNFMLSLPNITESAIEKKQQFLKQSIWLEGFAPDLLSIKPSLAFLNSDLETLEKSMKFYRSVFGVDEASLKSLATAWKIPVDQVEAMMKSPAVFKPTDEETIQERLSRYVLEICFANRYLFRKNLFLRNVFYLKYYFLDMVTEDAKTLLKEIYLRNKLPSN”, for which the “soluble on expression in E. coli” value is reported as “not soluble”.

As to “MWITQEITPYLRKEYTIEAKLLDVRSEHNILEIFKSKDFGEIAMLNRQLLFKNFLHIESELLAHMGGCTKKELKEVLIVDGFDLELAHQLFKYDTHIDFVQADEKILDSFISFFPHFHEVKNNKNFTHAKQLLDLDIKKYDLIFCLQEPDIHRIDGLKRMLKEDGVFISVAKHPLLEHVSMQNALKNMGGVFSVAMPFVAPLRILSNKGYIYASFKTHPLKDLMTPKIEALTSVRYYNEDIHRAAFALPKNLQEVFKDNIKS”, the “soluble on expression in E. coli” value is “soluble”.

Regarding “KTTVRVGLVQWQMRPYKTLDDVFEQVEFFVDAVSDYKSDFVLFPEYFNAPLMAKFNHLGEAQSIRGLAQYTEEVRDRFINLAISYNINIITGSMPYVKEDGGLYNVGFLVRRDGSYEMYEKVHVTPDEIKSWGLSGGKMVQTFDTDCAKIGILICYDVEFPELSRIMADQGMQILFVPFLTDTQNGYSRVRVCAQARAIENECFVVIAGSVGNLPRVHNMDIQYAQSGVFTPCDFAFPTDGKRAEATPNTEMILVSDVDLNLLNELHTYGSVRNLRDRRHDLYELKIKK”, the “soluble on expression in E. coli” value was “not soluble”.

Source of the values: the DeepSol protein solubility set.
